Molecular target: T1, FLAG-2xStrep-PNO1 (UniProt Q9NRX1 1-252)
T1 construct: also called PNO1 bait protein
Assay: pull-down
Conditions: partners not purified

T1 sequence (Q9NRX1 whole entry): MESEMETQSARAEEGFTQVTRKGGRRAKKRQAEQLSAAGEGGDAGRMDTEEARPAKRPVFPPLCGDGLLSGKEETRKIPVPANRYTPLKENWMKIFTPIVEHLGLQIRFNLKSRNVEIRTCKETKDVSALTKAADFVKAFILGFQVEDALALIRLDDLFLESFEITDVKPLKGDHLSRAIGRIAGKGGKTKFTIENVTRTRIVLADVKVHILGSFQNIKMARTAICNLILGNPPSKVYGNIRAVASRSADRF

Row | Binder | fold increase of association during lytic replication over latency (densitometry of pulldown blots, normalised to PNO1)
1 | NOC4L (natural protein, human (endogenous in TREx BCBL1-Rta), UniProt Q9BVI4 1-516, looked up) MEREPGAAGVRRALGRRLEAVLASRSEANAVFDILAVLQSEDQEEIQEAVRTCSRLFGALLERGELFVGQLPSEEMVMTGSQGATRKYKVWMRHRYHSCCNRLGELLGHPSFQVKELALSALLKFVQLEGAHPLEKSKWEGNYLFPRELFKLVVGGLLSPEEDQSLLLSQFREYLDYDDTRYHTMQAAVDAVARVTGQHPEVPPAFWNNAFTLLSAVSLPRREPTVSSFYVKRAELWDTWKVAHLKEHRRVFQAMWLSFLKHKLPLSLYKKVLLIVHDAILPQLAQPTLMIDFLTRACDLGGALSLLALNGLFILIHKHNLEYPDFYRKLYGLLDPSVFHVKYRARFFHLADLFLSSSHLPAYLVAAFAKRLARLALTAPPEALLMVLPFICNLLRRHPACRVLVHRPHGPELDADPYDPGEEDPAQSRALESSLWELQALQRHYHPEVSKAASVINQALSMPEVSIAPLLELTAYEIFERDLKKKGPEPVPLEFIPAQGLLGRPGELCAQHFTLS | 3.1 fold
2 | BUD23 (natural protein, human (endogenous in TREx BCBL1-Rta), UniProt O43709 1-281, looked up) MASRGRRPEHGGPPELFYDETEARKYVRNSRMIDIQTRMAGRALELLYLPENKPCYLLDIGCGTGLSGSYLSDEGHYWVGLDISPAMLDEAVDREIEGDLLLGDMGQGIPFKPGTFDGCISISAVQWLCNANKKSENPAKRLYCFFASLFSVLVRGSRAVLQLYPENSEQLELITTQATKAGFSGGMVVDYPNSAKAKKFYLCLFSGPSTFIPEGLSENQDEVEPRESVFTNERFPLRMSRRGMVRKSRAWVLEKKERHRRQGREVRPDTQYTGRKRKPRF | 4.3 fold
